According to patent US20240352134A1 (NANJING IMMUNOPHAGE BIOTECH, published 2024):
Where a chain is given by its changes, count along the chain named.

B1: 101E4 (antibody, V domains shown)
VH: EVQLVESGGGLVQPKGSLKLSCAASGFSFNPYAMNWVRQGPGKGLEWVARIRSKSNNYATYYADSVKDRFTISRDDSENILYLQMNNLKTEDTAMYYCVRDYYGGRSSIGMDYWGHGTSVTVSS
VL: DIVMTQAAPSVPVTPGESVSISCRSSKSLLHSNGNTYLYWFLQRPGQSPQLLIYRMSNLASGVPDRFSGSGSGTAFTLRISRVEAEDVGVYYCLQHLEYPFTFGGGTKLELK
notes: Mouse hybridoma monoclonal antibody (SJL mice); detected with anti-mouse IgG
B2: 4M13 (antibody, V domains shown)
VH: EVQLVESGGGLVQPKGSLKLSCAASGFSFNTYAMNWVRQAPGKGLEWVARMRSKSNNYATYYADSVKDRFTISRDDSESMLYLQMNNLKTEDTAMYYCVRGKDTSGSYAMDYWGQGTSVSVSS
VL: B1 VL with Q50H, R82K, A85T, L94M, G105S, L111I
notes: Mouse hybridoma monoclonal antibody
B3: 3F11 (antibody, V domains shown)
VH: B2 VH with M51I, N57Y, K102R, D103E, T104L, S105G, G106D, S107Y, S120T
VL: B1 VL with D65N, L94M, G105S, L111I
notes: as for B2
B4: 118H1 (antibody, V domains shown)
VH: B1 VH with G40A, V48I, T60A, N86K, K89I, G105T, S107P, H116R
VL: B1 VL with V3A, P12F, K27Q, Q47R, A75G, L94M, G105A
notes: Mouse hybridoma monoclonal antibody; also called 1181H1
B5: 3F6 (antibody, V domains shown)
VH: EVQFVESGGGLVQPKGSLKLSCAASGFSFNTYAMNWVRQAPGKGLEWVARIRTKSNNYATHYADSVKDRFIVSRDDSENILYLQMNNLKTEDTGMYYCVRGGNGIYGRNAMDNWGQGTSVTVSS
VL: B1 VL with T14S, N33S, L94M, L111I
notes: as for B2
B6: 103G4 (antibody, V domains shown)
VH: B1 VH with Q13R, M34L, G40A, R100K, G105T, S107P, H116Q
VL: B1 VL with K27R, Q50H, L94M, G105A
notes: as for B2
B7: 2L15 (antibody, V domains shown)
VH: B2 VH with M51I, D75A, T104I, G106V, S120T
VL: B1 VL with L30Q, A85T, L94M, G105S, L111I
notes: as for B2
B8: 4G19 (antibody, V domains shown)
VH: B5 VH with K67T, N79S, I80M, L81T, A110T
VL: B1 VL with A7T, T14S, N33S, L94M, L111I, K112Q
notes: as for B2
B9: 1G17 (antibody, V domains shown)
VH: QVQLQQSGAELVRPGASVTLSCKASGYTFADYEMHWVKQTPVLGLEWIGAIDPETGRTAYNQKFKFKATLTADRSSSTAYMELRSLTSEDSAVYYCTRRAYWGGWGQGTTLTVSS
VL: DVVMTQTPLSLPVSLGDQASISCRSSQSLVHSSGNTYLHWYLQKPGQSPKLLIYKVSNRFSGVPDRFSGSGSGTDFTLKISRVEAEDLGVYFCSQSTHVPYTFGGGTKLEIK
notes: as for B2
B10: 4D24 (antibody, V domains shown)
VH: EVQLVESGGGLVQPKGSLKLSCAASGFSFNPYAMNWVRQSPGKGLEWVARIRSKSNNYATYYADSVKDRFTISRDDSESMLYLQMNNLKTEDTAMYYCVRQGWVKRYFDVWGTGTTVTVSS
VL: GNVLTQSPAIMSASPGEKVTMTCSASSSGTYMHWYQQKSTTSPKLWIYDTSKLASGVPGRFSGSGSGNSYSLTISSMEAEDIATYYCFQGSGYPLTFGSGTKLEIK
notes: as for B2

What follows are binders tested against T1, human CCR8 (human, UniProt P51685 1-355) (assay: FACS on 293F-CCR8 cells).
T1 construct: whole, on cells; also called hCCR8; C-C Motif Chemokine Receptor 8
Procedure: The affinity of anti-CCR8 antibodies was evaluated by FACS. […] Affinity analyses were generally carried out as follows. […] The test antibodies were diluted with PBS/0.5 BSA (1:3 series dilution from 225 μg/mL to 0.00381 μg/mL). The transfected cells along with parent non-transfected cells were distributed into 96-well round-bottom polystyrene plates and incubated with the diluted antibodies on ice for 20-30 minutes. Next, the samples were washed with PBS/0.5 BSA and the cells were centrifuged. The pelleted cell samples were incubated with the second antibody of anti-mouse IgG-FITC-at 1:300 dilution in 100 μL PBS/0.5% BSA on ice for 30 minutes, and then washed with PBS/0.5% BSA, followed by pelleting the cells. The cell pellets were re-suspended in PBS/0.5% BSA for reading, and samples were analyzed using CYTOFLEX (Beckman).

T1 sequence (P51685 whole entry): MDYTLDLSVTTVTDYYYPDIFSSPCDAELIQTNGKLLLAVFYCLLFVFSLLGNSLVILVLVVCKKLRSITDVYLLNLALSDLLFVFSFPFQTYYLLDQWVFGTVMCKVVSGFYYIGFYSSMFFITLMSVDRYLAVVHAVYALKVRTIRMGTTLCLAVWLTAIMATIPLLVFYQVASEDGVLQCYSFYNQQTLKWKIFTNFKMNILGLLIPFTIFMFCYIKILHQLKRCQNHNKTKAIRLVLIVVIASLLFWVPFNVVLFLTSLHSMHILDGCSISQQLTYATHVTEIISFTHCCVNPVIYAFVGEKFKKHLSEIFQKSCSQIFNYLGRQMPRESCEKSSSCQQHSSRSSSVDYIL

EC50 [nM]	Binder
0.409	B1
0.775	B2
0.957	B3
0.466	B4
2.29	B5
20.6	B6
0.826	B7
4.49	B8
2.94	B9
0.888	B10

The binders below were run against T1, human CCR8 (assay: cell-based or functional assay).

Tango IC50 [nM]	Binder
0.27	B1
0.47	B2
0.27	B3
1.43	B4
0.51	B5
0.83	B6
1.23	B7
2.61	B8
1.82	B9
0.67	B10
